The subject of the assay is human umbilical vein endothelial cells (HUVEC). Description: Uptake of fluorophore-labeled cow's milk exosomes into HUVECs. The settings on record: exosomal surface proteins removed by proteinase K. In kind it is cell-based.

B1: proteinase K: non-specific protease used to remove surface proteins of exosomes or cells (protein, UniProt P06873 106-384, looked up)
Proteinase K: AAQTNAPWGLARISSTSPGTSTYYYDESAGQGSCVYVIDTGIEASHPEFEGRAQMVKTYYYSSRDGNGHGTHCAGTVGSRTYGVAKKTQLFGVKVLDDNGSGQYSTIIAGMDFVASDKNNRNCPKGVVASLSLGGGYSSSVNSAAARLQSSGVMVAVAAGNNNADARNYSPASEPSVCTVGASDRYDRRSSFSNYGSVLDIFGPGTSILSTWIGGSTRSISGTSMATPHVAGLAAYLMTLGKTTAASACRYIADTANKGDLSNIPFGTVNLLAYNNYQA
As to B1, the exosome uptake is listed as ~50 % of controls.

These data come from US12290533B2, “Extracellular vesicles and methods of using” (NUtech Ventures, priority 2018, dated 2025).
